# Target: T1, OR7D4 (Homo sapiens, UniProt Q8NG98, D296E/E302K/G299D)
# T1 construct: Improved functional expression of modified OR-genes containing the truncated, optimized C-terminus; expressed in transfected cells
# T1 sequence (Q8NG98 with tags, fused parts or gaps D296E/G299D/E302K): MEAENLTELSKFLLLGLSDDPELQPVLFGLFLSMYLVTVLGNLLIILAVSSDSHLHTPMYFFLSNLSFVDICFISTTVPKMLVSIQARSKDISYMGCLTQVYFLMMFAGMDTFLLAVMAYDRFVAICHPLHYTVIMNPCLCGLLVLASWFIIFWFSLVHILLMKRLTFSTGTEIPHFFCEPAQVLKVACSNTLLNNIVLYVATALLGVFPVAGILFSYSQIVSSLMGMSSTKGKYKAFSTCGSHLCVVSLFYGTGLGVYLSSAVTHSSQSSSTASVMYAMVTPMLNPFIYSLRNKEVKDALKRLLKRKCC
# Test: CRE-luciferase assay, HEK cells expressing OR7D4 (wild-type / modified C-terminus)
# Assay type: cell-based
# Conditions: not given
# Excerpt: Random permutations of the general C-terminal sequence RN[KR][EDQ][VMIL][KR]KA[LIV][KRH][KR][LI][LIF][KRG][KR][KR]CC (SEQ ID NO: 822) linked to OR7D4 were generated based on degenerate oligonucleotides for the C-terminal domain. For this experiment, the MfeI/XhoI fragment from pcDNA3.1(+)-mmLucy-FLAG-rho-OR7D4 containing the CMV promoter and the OR coding sequence was used to replace the EcoRI/SalI fragment of pRDVCCB-CMV-dCas9-VPH-2A-Blast (Cellecta, Inc., Mountain View, USA). Complementary degenerate oligonucleotides were then used to replace the coding region of the C-terminal domain of […] (between Bsu36I and NotI). Random clones were selected, sequenced and tested for a correct open reading frame. A total of 55 clones were obtained with the correct open reading frame of […] and a permutation of the general sequence RN[KR][EDQ][VMIL][KR]KA[LIV][KRH][KR][LI][LIF][KRG][KR][KR]CC (SEQ ID NO: 822) as the C-terminal domain. All the different clones were compared to the wild-type sequence by the functional assay in HEK cells with the ligand Androstenone tested in a dose-response test.
row,Molecule,Comments on efficacy
1,"C[C@]12CCC(=O)C[C@@H]1CC[C@@H]1[C@@H]2CC[C@]2(C)C=CC[C@@H]12 [Androstenone, reference compound]",3-fold lower

# Same assay, conditions: OR7D4 variant, 0.1 μM Androstenone
row,Molecule,Fold induction luciferase
1,SEQ ID NO: 285 (RNKELKKALRRLIGRRCC; source 1..18: note = C-terminal domain sequence),3.18
2,SEQ ID NO: 288 (RNKEVRKALKKLFGKKCC; source 1..18: note = C-terminal domain sequence),17.84

# Same assay, conditions: OR7D4 variant, 1 μM Androstenone
row,Molecule,Fold induction luciferase
1,SEQ ID NO: 285 (RNKELKKALRRLIGRRCC; source 1..18: note = C-terminal domain sequence),22.10
2,SEQ ID NO: 288 (RNKEVRKALKKLFGKKCC; source 1..18: note = C-terminal domain sequence),28.81

# Same assay, conditions: OR7D4 variant, Androstenone
Molecule,EC2 (concentration for 2-fold luciferase induction),EC2 Fold-improvement vs. wild-type
SEQ ID NO: 269 (RNKDIRKAVKKIFRRKCC; source 1..18: note = C-terminal domain sequence),0.026 µM,65.26
SEQ ID NO: 285 (RNKELKKALRRLIGRRCC; source 1..18: note = C-terminal domain sequence),0.042 µM,41.00
SEQ ID NO: 288 (RNKEVRKALKKLFGKKCC; source 1..18: note = C-terminal domain sequence),0.006 µM,294.52
SEQ ID NO: 299 (RNRELKKAIRKLLKRKCC; source 1..18: note = C-terminal domain sequence),0.093 µM,18.62
SEQ ID NO: 297 (RNRDVRKALKRLLKRKCC; source 1..18: note = C-terminal domain sequence),0.005 µM,337.39
SEQ ID NO: 282 (RNRDVKKAIRRLFRRRCC; source 1..18: note = C-terminal domain sequence),0.007 µM,250.61
SEQ ID NO: 296 (RNREVKKALRRLFGKKCC; source 1..18: note = C-terminal domain sequence),0.003 µM,525.05
SEQ ID NO: 257 (RNKEMKKAIHKLFGKKCC; source 1..18: note = C-terminal domain sequence),0.010 µM,172.96
SEQ ID NO: 260 (RNKELRKALHKLLGRKCC; source 1..18: note = C-terminal domain sequence),0.043 µM,39.74

# The remaining lines, values ahead:
EC2 (concentration for 2-fold luciferase induction),EC2 Fold-improvement vs. wild-type,Molecule
0.095 µM,18.20,SEQ ID NO: 274 (RNKELKKAIKRILKKKCC; source 1..18: note = C-terminal domain sequence)
0.009 µM,187.06,SEQ ID NO: 280 (RNREMRKAIKKIIKKKCC; source 1..18: note = C-terminal domain sequence)
0.004 µM,427.69,SEQ ID NO: 261 (RNRDVRKALRRILRRRCC; source 1..18: note = C-terminal domain sequence)
0.008 µM,224.95,SEQ ID NO: 294 (RNRDIRKALRKLFKKKCC; source 1..18: note = C-terminal domain sequence)
0.010 µM,164.23,SEQ ID NO: 255 (RNREVKKAIHKLIGRKCC; source 1..18: note = C-terminal domain sequence)
0.033 µM,51.89,SEQ ID NO: 295 (RNRELKKALRRLLRRRCC; source 1..18: note = C-terminal domain sequence)

# Same assay, conditions: changed C-term. vs wild-type
Molecule,Fold-improvement potency,Fold-improvement threshold
"C[C@]12CCC(=O)C[C@@H]1CC[C@@H]1[C@@H]2CC[C@]2(C)C=CC[C@@H]12 [Androstenone, reference compound]",66,265

# Target: T2, OR7C1 (Homo sapiens, UniProt O76099, D296E/G302K/M297V/R299D/T295K/V126I)
# T2 construct: Improved functional expression of modified OR-genes containing the truncated, optimized C-terminus; expressed in transfected cells; host or cells: HEK293T stably expressing human RTP1S(V227I) and RTP2(L220R)
# T2 sequence (O76099 with tags, fused parts or gaps V126I/T295K/D296E/M297V/R299D/G302K): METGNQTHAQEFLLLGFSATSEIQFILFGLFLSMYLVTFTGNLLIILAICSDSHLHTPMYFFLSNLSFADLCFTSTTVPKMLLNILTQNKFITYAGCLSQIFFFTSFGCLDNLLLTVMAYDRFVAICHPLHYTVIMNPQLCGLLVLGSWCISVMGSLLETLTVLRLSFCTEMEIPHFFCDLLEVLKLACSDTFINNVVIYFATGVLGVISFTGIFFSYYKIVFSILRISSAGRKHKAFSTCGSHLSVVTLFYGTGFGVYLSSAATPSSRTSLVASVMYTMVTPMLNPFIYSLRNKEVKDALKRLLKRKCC
# Test: CRE-luciferase assay, HEK293T cells expressing OR7C1 (wild-type / modified C-terminus)
# Assay type: cell-based
# Conditions: OR7C1 variant, 1 μM Ambermax
# Excerpt: To test for possible variants of the sequence […]CC (SEQ ID NO: 86) leading to similar improved functional expression, different point mutations were introduced into the first 16 amino acids of this sequence (corresponding to […], SEQ ID NO: 10) and the variants were fused after the TM7 with OR7C1. […] The test concentrations were selected to fall into the range of partial activity of the wild-type sequence.
row,Molecule,% of the activation by the optimized sequence RNKEVKDALKRLLKRKCC
1,Ala Glu,2.1%
2,Tyr Pro,221.7%
3,SEQ ID NO: 102 (RNKEVKDALKRLIKRKCC; source 1..18: note = C-terminal domain sequence),88.6%
4,SEQ ID NO: 189 (RNHEVKDALKRLLKRKCC; source 1..18: note = C-terminal domain sequence),16.2%
5,His Asp,1.6%
6,SEQ ID NO: 195 (RNKEVKDALKRLRKRKCC; source 1..18: note = C-terminal domain sequence),14.1%
7,SEQ ID NO: 130 (RNKEVKKALKRLLKRKFK; source 1..18: note = C-terminal domain sequence),286.4%
8,SEQ ID NO: 321 (RNKEVKCALKRLLKRKCC; source 1..18: note = C-terminal domain sequence),46.0%
9,SEQ ID NO: 191 (RNKEVKDVLKRLLKRKCC; source 1..18: note = C-terminal domain sequence),3.9%
10,Ala Ala,2.1%
11,SEQ ID NO: 128 (RNKEVKKALKRLLKRKYP; source 1..18: note = C-terminal domain sequence),206.9%
12,Ser Ile,225.3%
13,SEQ ID NO: 110 (RNKEVKGALKRLLKRKCC; source 1..18: note = C-terminal domain sequence),41.6%
14,SEQ ID NO: 193 (RNKEVKDALKHLLKRKCC; source 1..18: note = C-terminal domain sequence),12.3%
15,SEQ ID NO: 109 (RNKELKDALKRLLKRKCC; source 1..18: note = C-terminal domain sequence),43.8%
16,SEQ ID NO: 107 (RNKDVKDALKRLLKRKCC; source 1..18: note = C-terminal domain sequence),53.2%
17,SEQ ID NO: 327 (RNKEVKPALKRLLKRKCC; source 1..18: note = C-terminal domain sequence),−3.7%
18,SEQ ID NO: 108 (RNKQVKDALKRLLKRKCC; source 1..18: note = C-terminal domain sequence),42.0%
19,SEQ ID NO: 329 (RNKEVKTALKRLLKRKCC; source 1..18: note = C-terminal domain sequence),129.9%

# Results, then the molecule that gave them:
row,% of the activation by the optimized sequence RNKEVKDALKRLLKRKCC,Molecule
1,83.9%,Arg Pro
2,17.4%,SEQ ID NO: 330 (RNKEVKWALKRLLKRKCC; source 1..18: note = C-terminal domain sequence)
3,30.4%,SEQ ID NO: 194 (RNKEVKDALKRVVKRKCC; source 1..18: note = C-terminal domain sequence)
4,263.5%,SEQ ID NO: 154 (RNKEVKDALKRLLKRKCRRRR; source 1..21: note = C-terminal domain sequence)
5,167.7%,Arg Arg
6,91.4%,Gly Leu
7,0.0%,Gln Glu
8,114.6%,His Pro
9,108.3%,Tyr Tyr
10,4.3%,Val Ser
11,108.0%,SEQ ID NO: 325 (RNKEVKLALKRLLKRKCC; source 1..18: note = C-terminal domain sequence)
12,72.0%,Arg Tyr

# — patent US20260210939A1, “MODIFIED OLFACTORY RECEPTORS” (GIVAUDAN SA, priority 2022, published 2026)
